Reference: patent publication US20090263894A1 (AbbVie / Abbott, published 2009)

B1: anti-NGAL monoclonal antibody 1-903-430 (antibody, V domains shown)
VH: KIQLVQSGPELKKPGETVKISCKASGYTFTNYGMNWVKQAPGKGLKWMGWININTGEPTYAEEFKGRFAFSLETSATTAFLQINNLKNEDTATYLCARDSYSGGFDYWGQGTIVTVSS
VL: DIVMTQSPSSLSVSAGEKVTLSCKSSQSLLISGDQKNYLAWYQQKPGQPPKLLIYGASTRDSGVPDRFTGSGSGADFTLTISSVQAEDLAVYYCQNDHSFPPTFGAGTKLELKR
B2: anti-NGAL monoclonal antibody 1-2322-455 (antibody, V domains shown)
VH: EVQLVESGGGLVQPGGSLKLSCAASGFTFNNYYMSWVRQTPERRLEWVAYISSSGGSTYYSDSVRGRFTISRDTARNTLYLQMTSLKSEDTAMYYCARHFGDYSYFDYWGQGTTLTVSS
VL: DIQMTQSPASLSASVGETVTITCRASENFYSYLAWYQQKQGKSPQLLVYNAKTLAEGVPSRFSGSGSGTQFSLKINSLQPEDFGTYYCQHHYDIPLTFGAGTKLELKR

Experiments:
[1] = biological target: T1, Wild-type NGAL rAg (CHO clone #662) (human, UniProt P80188 21-198, glycosylated (CHO)); experiment: KinExA, IgG in solution
T1 construct: also called NGAL wild-type antigen; wild-type NGAL rAg CHO 662
Method: (§1) The amount of free binding sites was determined by injecting the antibody/human NGAL reaction mixture over human NGAL immobilized on solid-phase Polymethyl-methacrylate (PMMA) beads. The free anti-NGAL antibody bound to the human NGAL coated beads were subsequently detected using the fluorescent CY5-conjugated goat anti-mouse polyclonal antibody (GAM-Cy5). The degree of GAM-Cy5 bound was proportional to the amount of anti-NGAL IgG bound to the human NGAL-coated beads. The KD was determined by analyzing the amount of free binding sites versus the amount of antigen present in the reaction sample using software provided by the manufacturer (Sapidyne Instruments, Boise, Id.). Experiments were performed in a PBS, pH 7.4, and 1% BSA reaction diluent.

[2] = biological target: T2, Mutant C87S NGAL rAg (CHO cell clone #734) (human, UniProt P80188 21-198, glycosylated (CHO)); experiment: KinExA, IgG in solution
T2 construct: also called NGAL mutant C87S antigen; mutant C87S NGAL rAg CHO 734
T2 chain: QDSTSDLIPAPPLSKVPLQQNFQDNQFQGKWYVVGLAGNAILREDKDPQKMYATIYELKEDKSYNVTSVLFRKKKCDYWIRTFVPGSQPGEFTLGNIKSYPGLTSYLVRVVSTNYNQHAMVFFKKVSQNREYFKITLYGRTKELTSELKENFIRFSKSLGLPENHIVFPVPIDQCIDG
Method: as §1

[3] = biological target: T3, wild-type NGAL antigen displayed on yeast (AGA2 fusion) (human, UniProt P80188 21-198); experiment: flow cytometry, mAb titrated on yeast displaying NGAL
T3 construct: also called WT
Method: The side chain of each of the NGAL rAg residues identified from the epitope selections was altered by site-directed mutagenesis to alanine to confirm the functional epitope (direct contact residues) of each NGAL mAb subclone.
The change in Gibbs free binding energy (ΔΔG_Ala-WT) was determined to assess the energetic impact of each alanine substitution for mAb binding. The change in Gibbs free binding energy upon alanine substitution was calculated using the following equation [2],
For these experiments, observed fluorescence (F) was used to solve for KD using equation [1]. The KD derived from equation [1] one was then used in equation [2] to derive the change in Gibbs free binding energy upon alanine substitution. The KD is read from the abscissa of each of the curves at the inflection point.

[4] = biological target: T4, human NGAL antigen (Neutrophil Gelatinase Associated Lipocalin) (human, UniProt P80188 21-198, biotin label in the hybridoma EIAs); experiment: SPR (BIAcore): mAb captured on anti-mouse Fc, 100 nM NGAL
T4 construct: also called NGAL-Bt; biotin labeled NGAL
Method: Using BIAcore, NGAL hybrid supernatants are evaluated for relative binding affinity to NGAL and grouped accordingly in NGAL binding epitope groups. The affinity assay was completed on a goat anti-mouse IgG Fc Capture Biosensor as follows. Flow cells were first equilibrated with a running buffer (hereinafter “Running Buffer”) that contains HBS-EP buffer spiked with 0.1% BSA and 0.1% CM-Dextran), at 10 μL/min. Next, 13 μL of supernatant was floated across individual flow cells capturing anti-NGAL antibody from the supernatant onto the biosensor, and with one flow cell being left blank as a reference flow cell. The flow cells then were washed for 5 minutes at 50 μL/min with Running Buffer, and 150 μL of NGAL antigen at a 100 nM concentration was injected across the chip followed by 5 minutes of Running Buffer. The relative binding kinetics, association and dissociation, were monitored via sensorgrams. The sensorgrams were analyzed using Scrubber 2.0 software (BioLogic Software Pty Ltd., Australia) to determine association and dissociation rates, as well as overall KD.

[5] = biological target: T5, human NGAL (C87S) produced in E. coli, NGAL(+)mut8 (human, UniProt P80188 21-198, 15N/2H or 13C/15N isotope label (NMR, Example 8); BHQ-10S quencher label (KD titrations, Example 9)); experiment: DC-FCCS sandwich formation in solution; second antibody mAb 2322
T5 construct: also called BHQ-NGAL; isotope-labeled human NGAL
T5 chain: T2 chain
Method: Samples were placed in a 96-microwell optical bottom plate (Nalge Nunc International, Rochester, N.Y.). The excitation wavelength was set at 810 nm, 3 mW on the sample. Sampling rate was set at 200 KHz and 10 million points were collected for each measurement. Each sample was measured twice. Experiments were performed on each sample after one-hour incubation.
Labeled antibodies were mixed at equal concentration (40 μL of 10 nM mAbs) and ligand (15 nM NGAL) was added to the solution. Cross-correlation curves before and after adding NGAL were calculated from the data sets acquired in each channel and the data were normalized.
For illustration purposes, a relative number was assigned to each antibody pair, which, in fact, is the ratio of Gx(0) values before and after the addition of NGAL to the antibodies (Table 13). All ratio values were corrected for the background. A value of “1” indicates no sandwich formation, values between 1.1 and 2.5 indicate a poor sandwich formation, and all values above 2.6 indicate productive antibody pairing.

[6] = biological target: T5, human NGAL (C87S) produced in E. coli, …; experiment: fluorescence quenching titration: ALEXA 488-mAb with BHQ-NGAL in solution
Method: (§2) The equilibrium dissociation constants (KD) of NGAL and six anti-NGAL antibodies were measured in direct binding experiments. […] After 30 minutes incubation, all samples were measured on an SLM 8100 photon counting spectrofluorimeter. Samples were excited at 480 nm, and the emission was collected through a 530 nm (30 nm bandwidth) interference filter (Chroma Technology Corp., Rockingham, Vt.). All binding measurements were performed in 10 mM HEPES buffer, pH 7.4, containing 0.15 M NaCl, 3 mM EDTA, and 0.005% surfactant P20.
(§3) where Ligandₜₒₜₐₗ and ABSₜₒₜₐₗ are the BHQ-NGAL concentration and total antibody binding sites, respectively, and Fbound is the fraction of bound antibody sites. The binding data were fitted with a simple binding model to obtain the equilibrium dissociation constant (KD) according to equation [4]: […]

[7] = biological target: T5, human NGAL (C87S) produced in E. coli, …; experiment: fluorescence quenching titration in solution: ALEXA 488-labelled mAb at 0.05 nM, BHQ-labelled NGAL varied, fraction bound against free BHQ-NGAL
Method: as §2, §3

Binder	Kd [1] [nM]	Kd [2] [nM]	Kd [3] [nM]	ΔKD (KD against KD of WT) [3] [fold]	ΔΔG Ala-WT [3] [kcal/mol]	Kd [4] [nM]	koff [4] [s⁻¹]	kon [4] [M⁻¹ s⁻¹]	ratio of Gx(0) before and after adding NGAL [5]	Kd [6] [nM]	EC50 (read off the curve) [7] [nM]
B1	0.32	1.1	0.204	1	0	1.01	0.000272	269000	3.7	1.2	~1
B2	0.024	0.023	0.0081	1	0	0.155	7.28e-05	468000	0.7	0.06	~0.06
